Assay results taken from patent publication US20240252795A1, “INGESTIBLE DEVICE FOR DELIVERY OF THERAPEUTIC AGENT TO THE GASTROINTESTINAL TRACT” (BIORA THERAPEUTICS, INC., priority 2018, published 2024).
Values joined by “and” are separate entries in the source; they are usually repeats but may differ in a detail not shown here. Equal entries are not always repeated. Where two headings read alike, the source gives them in different places.

Legend:
[1] = tested on: blood glucose; experiment: Euglycemic clamp procedure: blood glucose and dextrose infusion rate after NOVOLIN R; format: in vivo, swine; conditions: for mean blood glucose level: euglycemic clamp
Method: (§1) Blood samples were kept on wet ice until centrifugation and separation of plasma. […] Glucose was monitored every five (5) minutes during the study by portable glucose analyzer (StatStrip (SS) hospital glucose monitoring system (Nova Biomedical, Waltham, MA)). At each time point, approximate 0.1 mL of blood was drawn and immediately placed on a glucose monitoring test strip, and the whole blood glucose concentration was measured by the SS in triplicate.
A euglycemic clamp procedure (ECP) was employed to compare pharmacokinetics and pharmacodynamics of regular human Insulin (NOVOLIN® R) delivered subcutaneously (SC) in the neck versus intra-jejunally (IJ) by the jet delivery device in the small intestine. ECP was used to quantify the amount of glucose required to maintain normoglycemia after exogenous bolus of insulin. […] The animals were anesthetized for the entire ECP.

[2] = PK of regular human insulin (NOVOLIN R) after SC or intra-jejunal jet delivery, blood insulin levels; format: in vivo, swine; conditions: for Cmax / Tmax: IJ administration by jet delivery device, blood insulin
Method: A total of 18 Yorkshire female swine in good health and weighing 60-70 kg each were included in this study. Swine were divided into two groups with 9 animals per group. […] A sham surgical laparotomy was performed. […] The jet delivery device was configured with the single nozzle in an axial orientation.
Swine were divided into two groups with 9 animals per group. […] In all 18 animals, a laparotomy procedure was performed to expose the abdominal cavity. Animals remained under anesthesia during the entire procedure for the PK/PD study.
For the laparotomy in group 02, a small segment of the jejunal mucosa and serosa was exposed by midline laparotomy and the jet delivery device was inserted through antimesenteric incision.
as §1
The animals were anesthetized for the entire ECP.

[3] = Non-reducing SDS-PAGE protein profile of jet-dispensed adalimumab (drug structure); format: physicochemical
Source text: The purpose of this study was to evaluate the effects that nozzle geometry and delivery pressure have on drug structure when the drug is dispensed from a jet delivery device using different delivery pressures and nozzle sizes. Structural changes in the jet-delivered drug could potentially result in compromised functioning of the drug in vitro.
The drug (adalimumab drug substance (DS)) was loaded into the simulated capsule jet delivery device and ejected using different pressures and nozzle geometries.
The resulting protein concentrations were obtained using an extinction coefficient of 1.4 and Gen5 version 3.03.14 program. The samples were then diluted and the protein profiles were analyzed using non-reducing SDS-PAGE. Protein banding patterns of the dispensed samples were compared to that of the unmanipulated drug and the drug artificially damaged (enzymatically degraded) via the papain in a commercial Fab fragmentation kit (Pierce™ Fab Preparation Kit).
For gel analysis, protein was mixed with non-reducing sample buffer. Samples were not heated. 5 μg of samples and controls were loaded per lane of a SDS-PAGE gel (4% Acrylamide-Bis stacking, 12% resolving; see Table 26). The gel was electrophoresed at 195 V and stained in R-250 Coomassie Blue dye.

[4] = Adalimumab plasma PK after ID administration via 4-nozzle jet delivery device; format: in vivo, female Yorkshire pigs (Sus scrofa domesticus); conditions: for AUC0-10 (±SEM) / Tmax: 40 mg, N=4, plasma; for AUC0-10 Corrected for Dose (±SEM): N=4; for Bioavailability over IV (±SEM): vs Example 5 IV control; for Bioavailability over IV (±SEM) / Bioavailability over SC (±SEM): AUC corrected for dose used; for Bioavailability over SC (±SEM): vs Example 5 SC control
Method: A total of 9 healthy female Yorkshire pigs (Sus scrofa domesticus) having a body weight of 24-30 kg were used in this study. […] Each dose group received test article via intraduodenal (ID) administration. The study design is shown below in Table 21.
Animals were housed two per cage and fasted for a minimum of 12 hours prior to dosing. Food was returned at 4 hours post-dose. Water was supplied ad libitum. The dosing was as follows: Dose day 1: group 1 (n=2), and group 2 (n=3); Dose day 2: group 2 (n=3), and group 1 (n=2).
Intraduodenal (ID) administration was performed as follows.
(§2) Each blood sample was collected from the pig jugular vein, or other suitable vessel via direct venipuncture, placed into a chilled tube containing K2-EDTA as the anticoagulant, and inverted several times to mix. Blood samples were kept on wet ice until centrifugation. […] Plasma was collected into pre-labeled polypropylene tubes and placed in a freezer set to maintain −60 to −80° C. prior to analysis.
(§3) All plasma samples were diluted by 1:100 dilution. Diluted samples were processed in duplicates and the mean Optical Density (O.D.) was measured using a SpectraMax plate reader is and utilizing SoftMax Pro software for analysis. The Lower Limit of Quantification (LLOQ) was calculated by adding 10× the standard deviation value of the blanks O.D. to the average of the blank standard O.D. values. […] The area under the concentration curve (AUC) was calculated with the trapezoidal rules.
The PK results were compared to a subset of data from Example 5. The bioavailability was determined by comparison with Example 5 control arms (SC and IV administration).

[5] = Adalimumab plasma PK after ID administration via endoscopic injection needle; format: in vivo, female Yorkshire pigs (Sus scrofa domesticus); conditions: 5 pigs in two studies
Method: A total of 5 healthy female Yorkshire pigs (Sus scrofa domesticus) having a body weight of ˜25-40 kg were used in these studies, 3 in a first study and 2 in a second study. Each animal received test article via intraduodenal (ID) administration via an injection needle. The study design is shown below in Table 34.
Animals were housed one per cage and fasted for a minimum of 12 hours prior to dosing. Food was returned at 4 hours post-dose. Water was supplied ad libitum.
Intraduodenal (ID) administration was performed as follows. […] Once it was confirmed that the endoscopic injection needle was placed in the correct region, approximately 0.5 mL of saline was injected within the lamina propria of the mucosa to create a small bleb in the mucosa. The formulation was then injected into the bleb and flushed with approximately 0.8 mL of saline. […]
as §3, with “reader” for “reader is”

[6] = target: TNFα (Homo sapiens, UniProt P01375); experiment: LOCI competitive inhibition assay of adalimumab binding to TNFα after jet dispensing; conditions: delivery pressures up to 300 psi, nozzle diameter down to 0.35 mm
Chain of TNFα (P01375 77-233 limits assumed): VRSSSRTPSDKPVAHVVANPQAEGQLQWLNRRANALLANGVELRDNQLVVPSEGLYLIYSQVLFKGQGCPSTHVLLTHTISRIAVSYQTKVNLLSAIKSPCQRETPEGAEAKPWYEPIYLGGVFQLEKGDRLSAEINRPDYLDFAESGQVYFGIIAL
Method: The drug (adalimumab) was loaded into the ingestible device and fired through a nozzle with varying diameters at various pressure conditions.
FIGS. 57A-57B illustrate the general principle of the assay.
Drug binding was detected using Luminescent Oxygen Channeling (LOCI™)—a competitive binding assay. Signal was detected by comparing to a non-drug carrier control and an artificially damaged drug using a commercial FAB fragmentation kit.
Drug function was determined through a competition binding assay comparing drug binding function for drug dispensed via standard delivery mechanism and drug delivered via the ingestible device with various pressures.

[7] = Adalimumab plasma PK after ID (2-nozzle jet delivery device), SC or IV administration; format: in vivo, female Yorkshire pigs (Sus scrofa domesticus)
Method: A total of 21 healthy female Yorkshire pigs (Sus scrofa domesticus) having a body weight of 25-30 kg were used in this study. Five (N=5) were used in each of dose Groups 1-3 (intraduodenal (ID) administration via an endoscopically placed ingestible device), and three (N=3) were used in each of dose Group 4 (SC administration) and dose Group 5 (IV administration). The study design is shown below in Table 16.
Animals were housed two per cage and fasted for a minimum of 12 hours prior to dosing. Food was returned at 4 hours post-dose. Water was supplied ad libitum. The dosing was as follows: Dose day 1: group 1 (n=3), and group 3 (n=2); Dose day 2: group 2 (n=3), and group 1 (n=2); Dose day 3: group 3 (n=3), and group 2 (n=2); Dose day 4: groups 4 (n=3), and group 5 (n=3). Following the 240-hour post-dose blood collection the animal was euthanized via euthanasia solution IV bolus dose.
For subcutaneous (SC) administration, animals were placed in dorsal recumbence and the SC injection site asceptically prepared with alcohol. The test article was administered as an SC injection into a “skin tent” on the belly of the pig.
as §2
All plasma samples were diluted by 1:100 dilution. Plasma samples were reanalyzed with a 1:1000 dilution from animals 6287, 6289, 6332, 6334, 6336, 6149, 6335, and 6337. Plasma samples close to the lower limit of quantification (LLOQ) were repeated with a 1:5 dilution from animals 6138 and 6137. […] Therefore, the data from animal 6138 and 6137 were not included in the final PK analysis. […] The area under the concentration curve (AUC) was calculated with the trapezoidal rules.

[8] = pig, in vivo
[9] = SC administration, swine, group average
[10] = SC administration, swine, individual animals
[11] = Group 1: ID, 4 Nozzle device 320 PSIG
[12] = Group 2: ID, 4 Nozzle device 350 PSIG
[13] = Group 1: ID, 2 nozzle jet delivery device 220 PSIG, 40 mg, N=2, plasma
[14] = Group 3: ID, 2 Nozzle device 320 PSIG, N=5, data from Example 5
[15] = Group 3: ID, 2 Nozzle device 320 PSIG, data from Example 5
[16] = Group 3: ID, 2 nozzle jet delivery device 320 PSIG, 40 mg, N=5, plasma
[17] = Group 4: SC control, N=3, data from Example 5
[18] = Group 4: SC control, data from Example 5
[19] = Group 5: IV control, N=3, data from Example 5

NOVOLIN® R: regular human insulin (NOVOLIN® R)
mean blood glucose level ([1]; IJ administration group): 89.6 mg/dL | mean blood glucose level ([1]; SC administration group): 83.5 mg/dL | mean dextrose infusion rate, IJ versus SC group ([1]; from 75 minutes to 420 minutes post-administration): higher in the SC administration group | Cmax ([2]; Average of 8 animals): 77.40 uIU/mL | Tmax ([2]; Average of 8 animals): 55.63 min | Cmax ([2]; individual animal): 40.93 uIU/mL and 96.77 uIU/mL and 5.03 uIU/mL and 7.96 uIU/mL and 48.77 uIU/mL and 85.38 uIU/mL and 207.96 uIU/mL and 126.39 uIU/mL | Tmax ([2]; individual animal): 20 min and 50 min and 90 min (2×) and 40 min (3×) | blood insulin level in animal 18P18 ([2]; SC administration group, compared with rest of group): significantly higher than the rest of the animals in the group | Cmax of blood insulin, Average [2, 9]: 202.94 uIU/mL | Tmax of blood insulin, Average [2, 9]: 1.452 h | Cmax of blood insulin [2, 10]: 451.00 uIU/mL and 60.74 uIU/mL and 354.00 uIU/mL and 356.60 uIU/mL and 65.71 uIU/mL and 59.18 uIU/mL and 73.34 uIU/mL | Tmax of blood insulin [2, 10]: 50 min (2×) and 180 min and 105 min and 30 min and 120 min | maximum plasma concentration Cmax, SC group compared with IJ group ([2]; SC versus IJ administration): higher than that of the IJ administration group | time to maximum plasma concentration (Tmax) ([2]; jejunum (IJ) administration via jet delivery device, swine, group mean): 0.9272 h

adalimumab
protein banding pattern, non-reducing SDS-PAGE ([3]; 5 μg per lane, jet-delivered samples versus unmanipulated drug and papain-degraded controls): same banding pattern as the unmanipulated drug | structural changes after dispensing ([3]; dispensing pressures and nozzle sizes employed): No structural changes were evident | AUC0-10 (±SEM) [4, 11]: 23.831 µg·days/mL | Tmax [4, 11]: 24 h | AUC0-10 Corrected for Dose (±SEM) [4, 11]: 23.997 µg·days/mL | Bioavailability over IV (±SEM) [4, 11]: 19.560 | Bioavailability over SC (±SEM) [4, 11]: 26.120 | AUC0-10 (±SEM) [4, 12]: 14.603 µg·days/mL | Tmax [4, 12]: 24 h | AUC0-10 Corrected for Dose (±SEM) [4, 12]: 15.171 µg·days/mL | Bioavailability over IV (±SEM) [4, 12]: 12.367 | Bioavailability over SC (±SEM) [4, 12]: 16.513 | quantifiable levels in plasma [5]: one animal from the first study and one animal from the second study had quantifiable levels | ability of the drug to bind to the target TNFα after jet delivery [6]: did not significantly inhibit the ability of the drug to bind to the target TNFα | Cmax [7, 13]: 570 ng/mL | Tmax [7, 13]: 24 h | Tmax ([7]; Group 2: ID, 2 nozzle jet delivery device 270 PSIG, 40 mg, N=4, plasma): 24 h | AUC0-10 (±SEM) [7, 14]: 32.31 µg·days/mL | AUC0-10 Corrected for Dose (±SEM) [7, 14]: 32.25 µg·days/mL | Cmax [7, 14]: 5000 ng/mL | Tmax [7, 14]: 24 h | Bioavailability over IV (±SEM) [7, 15]: 26.25 | Bioavailability over SC (±SEM) [7, 15]: 35.38 | Cmax [7, 16]: 5000 ng/mL | Tmax [7, 16]: 24 h | AUC0-10 (±SEM) [7, 17]: 91.87 µg·days/mL | Tmax [7, 17]: 140 h | Bioavailability over IV (±SEM) [7, 18]: 74.89 | Bioavailability over SC (±SEM) [7, 18]: 100 | Tmax ([7]; Group 4: SC, 40 mg, N=3, plasma): 140 h | Bioavailability over IV ([7]; Group 5: IV): 100% | AUC0-10 (±SEM) [7, 19]: 122.67 µg·days/mL | Tmax [7, 19]: 3.12 h | Bioavailability over IV (±SEM) ([7]; Group 5: IV control, data from Example 5): 100 | Tmax ([7]; Group 5: IV, 40 mg, N=3, plasma): 3.12 h

dulaglutide: long-acting GLP-1 receptor agonist, GLP-1 analogue linked to modified human IgG4 Fc, about 63 kDa
Bioavailability relative to IV [8]: 26.51% | Bioavailability relative to SC [8]: 49.11% | plasma level in one animal in Group 1 (no. 8487; ID) [8]: below the limit of detection | (AUC)T0-T240 h ± SEM ([8]; 1.2 mg): 4355.86 ng·h/mL | AUCID (mean ± SEM) ([8]; 1.2 mg): 3890.00 ± 94.73 ng·h/mL | Cmax ([8]; 1.2 mg): 70.65 ng | Tmax ([8]; 1.2 mg): 8 h | Bioavailability relative to IV ([8]; iv): 100% | (AUC)T0-T240 h ± SEM ([8]; iv, 1.2 mg): 16429.33 ng·h/mL | Cmax ([8]; iv, 1.2 mg): 632.93 ng | Tmax ([8]; iv, 1.2 mg): 1 h | Bioavailability relative to SC ([8]; sc): 100% | (AUC)T0-T240 h ± SEM ([8]; sc, 1.2 mg): 8869 ng·h/mL | Cmax ([8]; sc, 1.2 mg): 141.3 ng | Tmax ([8]; sc, 1.2 mg): 6 h
